Data set [1] has as its system HeLa Kyoto. Kind of data set: solubility change mitosis vs G1/S (difference of NP-40 vs SDS log2 ratios) (log2 ratio difference); higher = more soluble in mitosis.
The subject of data set [2] is HeLa Kyoto. The data set can be described thus: thermal stability score vs G1/S (z-score of summed log2 fold changes over temperatures); higher = more thermally stable than in G1/S.
For data set [3], the system named is HeLa Kyoto. Kind of data set: solubility in G1/S (NP-40 vs SDS abundance) (log2 ratio); higher = more soluble. The note with it: cell cycle stage: G1/S.
Where [4] appears, read: cell cycle stage: early G1 (4.5 h after nocodazole release).
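Throughout, for solubility change mitosis vs G1/S (difference of NP-40 vs SDS log2 ratios): synchronized HeLa Kyoto cells (double thymidine block for G1/S, nocodazole release for mitosis), protein amounts in NP-40 versus SDS lysates quantified by mass spectrometry, three biological replicates.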
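Throughout, for solubility in G1/S (NP-40 vs SDS abundance): HeLa Kyoto cells arrested at G1/S by double thymidine block, proteins quantified by TMT10plex mass spectrometry in mild NP-40 versus SDS extracts, three biological replicates.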
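Throughout, for thermal stability score vs G1/S (z-score of summed log2 fold changes over temperatures): synchronized HeLa Kyoto cells, proteins quantified by TMT10plex mass spectrometry, three biological replicates, mitosis taken 0.5 h after nocodazole release, G1/S directly after double thymidine block.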

Regarding “MWDQRLVRLALLQHLRAFYGIKVKGVRGQCDRRRHETAATEIGGKIFGVPFNALPHSAVPEYGHIPSFLVDACTSLEDHIHTEGLFRKSGSVIRLKALKNKVDHGEGCLSSAPPCDIAGLLKQFFRELPEPILPADLHEALLKAQQLGTEEKNKATLLLSCLLADHTVHVLRYFFNFLRNVSLRSSENKMDSSNLAVIFAPNLLQTSEGHEKMSSNTEKKLRLQAAVVQTLIDYASDIGRVPDFILEKIPAMLGIDGLCATPSLEGFEEGEYETPGEYKRKRRQSVGDFVSGALNKFKPNRTPSITPQEERIAQLSESPVILTPNAKRTLPVDSSHGFSSKKRKSIKHNFNFELLPSNLFNSSSTPVSVHIDTSSEGSSQSSLSPVLIGGNHLITAGVPRRSKRIAGKKVCRVESGKAGCFSPKISHKEKVRRSLRLKFNLGKNGREVNGCSGVNRYESVGWRLANQQSLKNRIESVKTGLLFSPDVDEKLPKKGSEKISKSEETLLTPERLVGTNYRMSWTGPNNSSFQEVDANEASSMVENLEVENSLEPDIMVEKSPATSCELTPSNLNNKHNSNITSSPLSGDENNMTKETLVKVQKAFSESGSNLHALMNQRQSSVTNVGKVKLTEPSYLEDSPEENLFETNDLTIVESKEKYEHHTGKGEKCFSERDFSPLQTQTFNRETTIKCYSTQMKMEHEKDIHSNMPKDYLSKQEFSSDEEIKKQQSPKDKLNNKLKENENMMEGNLPKCAAHSKDEARSSFSQQSTCVVTNLSKPRPMRIAKQQSLETCEKTVSESSQMTEHRKVSDHIQWFNKLSLNEPNRIKVKSPLKFQRTPVRQSVRRINSLLEYSRQPTGHKLASLGDTASPLVKSVSCDGALSSCIESASKDSSVSCIKSGPKEQKSMSCEESNIGAISKSSMELPSKSFLKMRKHPDSVNASLRSTTVYKQKILSDGQVKVPLDDLTNHDIVKPVVNNNMGISSGINNRVLRRPSERGRAWYKGSPKHPIGKTQLLPTSKPVDL [ARHGAP11A]”, the “solubility change mitosis (log2)” value in the data set on HeLa Kyoto [1] was -0.288. Also, the thermal stability score is -0.137 in the data set on HeLa Kyoto [2] (setting [4]) and -0.131 in the data set on HeLa Kyoto [2] (cell cycle stage: mitosis). Also, in the data set on HeLa Kyoto [3], the “solubility in G1/S (log2)” value was -0.915.

Regarding “MKDYDELLKYYELHETIGTGGFAKVKLACHILTGEMVAIKIMDKNTLGSDLPRIKTEIEALKNLRHQHICQLYHVLETANKIFMVLEYCPGGELFDYIISQDRLSEEETRVVFRQIVSAVAYVHSQGYAHRDLKPENLLFDEYHKLKLIDFGLCAKPKGNKDYHLQTCCGSLAYAAPELIQGKSYLGSEADVWSMGILLYVLMCGFLPFDDDNVMALYKKIMRGKYDVPKWLSPSSILLLQQMLQVDPKKRISMKNLLNHPWIMQDYNYPVEWQSKNPFIHLDDDCVTELSVHHRNNRQTMEDLISLWQYDHLTATYLLLLAKKARGKPVRLRLSSFSCGQASATPFTDIKSNNWSLEDVTASDKNYVAGLIDYDWCEDDLSTGAATPRTSQFTKYWTESNGVESKSLTPALCRTPANKLKNKENVYTPKSAVKNEEYFMFPEPKTPVNKNQHKREILTTPNRYTTPSKARNQCLKETPIKIPVNSTGTDKLMTGVISPERRCRSVELDLNQAHMEETPKRKGAKVFGSLERGLDKVITVLTRSKRKGSARDGPRRLKLHYNVTTTRLVNPDQLLNEIMSILPKKHVDFVQKGYTLKCQTQSDFGKVTMQFELEVCQLQKPDVVGIRRQRLKGDAWVYKRLVEDILSSCKV [MELK]”, the “solubility change mitosis (log2)” value with HeLa Kyoto [1] turned out to be 0.0602. Besides, the thermal stability score in the data set with HeLa Kyoto [2] (setting [4]) is -0.242; in the data set on HeLa Kyoto [2] (cell cycle stage: mitosis) it was 0.0849. Further, in the data set on HeLa Kyoto [3], the “solubility in G1/S (log2)” value is -0.42.

TMEM131: the “solubility change mitosis (log2)” value with HeLa Kyoto [1] was -0.0264. For the same substance, the thermal stability score in the data set on HeLa Kyoto [2] (setting [4]) is -1.15; in the data set on HeLa Kyoto [2] (cell cycle stage: mitosis), -1.6. Besides, in the data set on HeLa Kyoto [3], the “solubility in G1/S (log2)” value is -0.0423.

Regarding “MALAVLRVLEPFPTETPPLAVLLPPGGPWPAAELGLVLALRPAGESPAGPALLVAALEGPDAGTEEQGPGPPQLLVSRALLRLLALGSGAWVRARAVRRPPALGWALLGTSLGPGLGPRVGPLLVRRGETLPVPGPRVLETRPALQGLLGPGTRLAVTELRGRARLCPESGDSSRPPPPPVVSSFAVSGTVRRLQGVLGGTGDSLGVSRSCLRGLGLFQGEWVWVAQARESSNTSQPHLARVQVLEPRWDLSDRLGPGSGPLGEPLADGLALVPATLAFNLGCDPLEMGELRIQRYLEGSIAPEDKGSCSLLPGPPFARELHIEIVSSPHYSTNGNYDGVLYRHFQIPRVVQEGDVLCVPTIGQVEILEGSPEKLPRWREMFFKVKKTVGEAPDGPASAYLADTTHTSLYMVGSTLSPVPWLPSEESTLWSSLSPPGLEALVSELCAVLKPRLQPGGALLTGTSSVLLRGPPGCGKTTVVAAACSHLGLHLLKVPCSSLCAESSGAVETKLQAIFSRARRCRPAVLLLTAVDLLGRDRDGLGEDARVMAVLRHLLLNEDPLNSCPPLMVVATTSRAQDLPADVQTAFPHELEVPALSEGQRLSILRALTAHLPLGQEVNLAQLARRCAGFVVGDLYALLTHSSRAACTRIKNSGLAGGLTEEDEGELCAAGFPLLAEDFGQALEQLQTAHSQAVGAPKIPSVSWHDVGGLQEVKKEILETIQLPLEHPELLSLGLRRSGLLLHGPPGTGKTLLAKAVATECSLTFLSVKGPELINMYVGQSEENVREVFARARAAAPCIIFFDELDSLAPSRGRSGDSGGVMDRVVSQLLAELDGLHSTQDVFVIGATNRPDLLDPALLRPGRFDKLVFVGANEDRASQLRVLSAITRKFKLEPSVSLVNVLDCCPPQLTGADLYSLCSDAMTAALKRRVHDLEEGLEPGSSALMLTMEDLLQAAARLQPSVSEQELLRYKRIQRKFAAC [PEX6]”, the “solubility change mitosis (log2)” value in the data set with HeLa Kyoto [1] is -0.158. The thermal stability score in the data set with HeLa Kyoto [2] (setting [4]) was -0.844; in the data set on HeLa Kyoto [2] (cell cycle stage: mitosis) it was -0.711. In the data set on HeLa Kyoto [3], the “solubility in G1/S (log2)” value was determined as 0.167.

(Values after the supplement of paper PMC5998384.)
